From US20050181450A1 (published 2005)

B1: GST-Iab (GST fusion of amino acids 1-343 of mouse IP3R1) (receptor)
chain: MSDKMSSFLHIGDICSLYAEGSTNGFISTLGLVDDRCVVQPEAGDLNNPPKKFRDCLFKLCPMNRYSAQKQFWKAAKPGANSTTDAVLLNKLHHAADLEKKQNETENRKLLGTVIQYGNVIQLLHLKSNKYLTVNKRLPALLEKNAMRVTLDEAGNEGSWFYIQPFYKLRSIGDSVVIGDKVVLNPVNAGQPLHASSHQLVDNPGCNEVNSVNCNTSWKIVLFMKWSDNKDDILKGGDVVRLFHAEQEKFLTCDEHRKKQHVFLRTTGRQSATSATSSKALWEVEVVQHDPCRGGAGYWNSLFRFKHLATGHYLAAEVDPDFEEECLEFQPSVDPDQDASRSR
notes: Expressed in Escherichia coli; not shown: glutathione S-transferase (GST) tag of vector pGEX-KG
B2: IRBIT (IP3R-binding protein released with inositol 1,4,5-trisphosphate) in the high salt extract of mouse cerebellar crude microsome (other)
chain: SMPDAMPLPGVGEELKQAKEIEDAEKYSFMATVTKAPKKQIQFADDMQEFTKFPTKTGRRSLSRSISQSSTDSYSSAASYTDSSDDEVSPREKQQTNSKGSSNFCVKNIKQAEFGRREIEIAEQDMSALISLRKRAQGEKPLAGAKIVGCTHITAQTAVLIETLCALGAQCRWSACNIYSTQNEVAAALAEAGVAVFAWKGESEDDFWWCIDRCVNMDGWQANMILDDGGDLTHWVYKKYPNVFKKIRGIVEESVTGVHRLYQLSKAGKLCVPAMNVNDSVTKQKFDNLYCCRESILDGLKRTTDVMFGGKQVVVCGYGEVGKGCCAALKALGAIVYITEIDPICALQACMDGFRVVKLNEVIRQVDVVITCTGNKNVVTREHLDRMKNSCIVCNMGHSNTEIDVTSLRTPELTWERVRSQVDHVIWPDGKRVVLLAEGRLLNLSCSTVPTFVLSITATTQALALIELYNAPEGRYKQDVYLLPKKMDEYVASLHLPSFDAHLTELTDDQAKYLGLNKNGPFKPNYYRY
notes: Endogenous protein extracted with 500 mM NaCl from crude microsome of mouse cerebellum, not purified; sites not determined; also called IRBIT in the high salt extract
B3: K508A (site-directed mutant of GST-IbIIa, lysine 508 of IP3R1 substituted with alanine) (receptor)
chain: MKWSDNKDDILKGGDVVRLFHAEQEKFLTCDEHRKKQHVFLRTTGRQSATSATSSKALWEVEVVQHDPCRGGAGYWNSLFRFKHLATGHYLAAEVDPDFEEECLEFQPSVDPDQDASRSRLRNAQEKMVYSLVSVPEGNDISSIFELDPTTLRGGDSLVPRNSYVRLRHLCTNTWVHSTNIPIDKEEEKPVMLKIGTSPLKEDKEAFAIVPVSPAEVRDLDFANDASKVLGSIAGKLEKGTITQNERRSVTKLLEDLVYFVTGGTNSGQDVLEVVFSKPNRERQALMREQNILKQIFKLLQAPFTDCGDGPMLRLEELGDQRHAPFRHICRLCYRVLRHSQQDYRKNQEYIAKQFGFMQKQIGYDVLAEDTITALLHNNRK
notes: not shown: The GST carrier at the N end and its vector linker
B4: GST-Ia (GST fusion of amino acids 1-225 of mouse IP3R1) (receptor)
chain: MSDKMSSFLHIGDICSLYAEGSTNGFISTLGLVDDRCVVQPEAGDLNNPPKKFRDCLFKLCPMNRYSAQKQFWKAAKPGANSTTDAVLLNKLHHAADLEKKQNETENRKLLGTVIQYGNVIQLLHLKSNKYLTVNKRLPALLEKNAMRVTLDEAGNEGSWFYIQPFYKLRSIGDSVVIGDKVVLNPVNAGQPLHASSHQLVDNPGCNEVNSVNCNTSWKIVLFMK
notes: as for B1
B5: GST-IV (GST fusion of amino acids 1553-1943 of mouse IP3R1) (receptor)
chain: DLDSQVNNLFLKSHNIVQKTALNWRLSARNAARRDSVLAASRDYRNIIERLQDIVSALEDRLRPLVQAELSVLVDVLHRPELLFPENTDARRKCESGGFICKLIKHTKQLLEENEEKLCIKVLQTLREMMTKDRGYGEKQISIDESENAELPQAPEAENSTEQELEPSPPLRQLEDHKRGEALRQILVNRYYGNIRPSGRRESLTSFGNGPLSPGGPSKPGGGGGGPGSSSTSRGEMSLAEVQCHLDKEGASNLVIDLIMNASSDRVFHESILLAIALLEGGNTTIQHSFFCRLTEDKKSEKFFKVFYDRMKVAQQEIKATVTVNTSDLGNKKKDDEVDRDAPSRKKAKEPTTQITEEVRDQLLEASAATRKAFTTFRREADPDDHYQSGE
notes: as for B1

What was measured:
[1] = target: B2; assay: GST pulldown from high salt extract, Western blot with anti-IRBIT antibody
Source text: (§1) FIG. 9A is the schematic representation of the structure of mouse IP₃R1 and the recombinant GST fusion proteins used in this study. The IP₃ binding core region is indicated with a gray box. Putative membrane-spanning regions are indicated with solid vertical bars. Roman numbers I to V indicate the domain structure of IP₃R1 determined by the limited trypsin digestion (51). Numbers above the bars represent corresponding amino acid residue numbers. […] The high salt extract of crude microsome obtained from mouse cerebella was incubated with GST fusion proteins shown in (A). Bound proteins were pulled down with glutathione-Sepharose, eluted with glutathione, and analyzed by Western blotting using anti-IRBIT antibody. […] Bound proteins were pulled down with glutathione-Sepharose, eluted with glutathione, and then analyzed by Western blotting using anti-IRBIT antibody (upper panel). GST fusion proteins pulled down with glutathione-Sepharose were stained with Coomassie Brilliant Blue (lower panel).
(§2) For the determination of the IRBIT binding region and the critical amino acid residue of IP₃R1, the diluted high salt extract was subjected to pulldown assay as described above with 100 pmol of GST, GST-EL, GST-Ia, GST-Iab, GST-IbIIa, GST-IIab, GST-IIbIIIa, GST-IIIab, GST-IV, GST-IV-Va, K508A or R441Q, and analyzed by Western blotting with anti-IRBIT antibody.

[2] = target: T1, GST-IIab (GST fusion of amino acids 341-923 of mouse IP3R1) (mouse, UniProt P11881 341-923); assay: as above
T1 construct: Expressed in Escherichia coli; not shown: glutathione S-transferase (GST) tag of vector pGEX-KG
T1 sequence (P11881 341-923): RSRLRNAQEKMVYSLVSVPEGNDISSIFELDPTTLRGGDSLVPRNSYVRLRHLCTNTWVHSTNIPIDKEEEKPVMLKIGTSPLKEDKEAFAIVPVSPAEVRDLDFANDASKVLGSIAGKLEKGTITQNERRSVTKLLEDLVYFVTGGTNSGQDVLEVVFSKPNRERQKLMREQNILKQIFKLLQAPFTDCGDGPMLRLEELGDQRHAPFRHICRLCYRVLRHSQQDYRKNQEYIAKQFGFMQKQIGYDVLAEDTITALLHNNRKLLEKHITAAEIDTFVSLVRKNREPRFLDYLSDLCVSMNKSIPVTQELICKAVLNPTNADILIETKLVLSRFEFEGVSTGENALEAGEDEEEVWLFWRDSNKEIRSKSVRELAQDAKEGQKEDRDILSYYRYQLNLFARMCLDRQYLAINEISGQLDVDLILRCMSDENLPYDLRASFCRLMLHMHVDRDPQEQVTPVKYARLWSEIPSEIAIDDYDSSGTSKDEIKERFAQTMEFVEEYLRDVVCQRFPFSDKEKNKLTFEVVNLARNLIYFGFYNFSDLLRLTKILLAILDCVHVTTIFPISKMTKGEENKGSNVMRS
Source text: as §1, §2

[3] = target: GST-EL (GST-IP3R1 (1-2217), GST fusion of the N-terminal 2217 amino acid residues of mouse IP3R1) (mouse, UniProt P11881 1-2217); assay: cell-based or functional assay
GST-EL (GST-IP3R1 (1-2217), GST fusion of the N-terminal 2217 amino acid residues of mouse IP3R1), sequence (P11881 1-2217 N1264K): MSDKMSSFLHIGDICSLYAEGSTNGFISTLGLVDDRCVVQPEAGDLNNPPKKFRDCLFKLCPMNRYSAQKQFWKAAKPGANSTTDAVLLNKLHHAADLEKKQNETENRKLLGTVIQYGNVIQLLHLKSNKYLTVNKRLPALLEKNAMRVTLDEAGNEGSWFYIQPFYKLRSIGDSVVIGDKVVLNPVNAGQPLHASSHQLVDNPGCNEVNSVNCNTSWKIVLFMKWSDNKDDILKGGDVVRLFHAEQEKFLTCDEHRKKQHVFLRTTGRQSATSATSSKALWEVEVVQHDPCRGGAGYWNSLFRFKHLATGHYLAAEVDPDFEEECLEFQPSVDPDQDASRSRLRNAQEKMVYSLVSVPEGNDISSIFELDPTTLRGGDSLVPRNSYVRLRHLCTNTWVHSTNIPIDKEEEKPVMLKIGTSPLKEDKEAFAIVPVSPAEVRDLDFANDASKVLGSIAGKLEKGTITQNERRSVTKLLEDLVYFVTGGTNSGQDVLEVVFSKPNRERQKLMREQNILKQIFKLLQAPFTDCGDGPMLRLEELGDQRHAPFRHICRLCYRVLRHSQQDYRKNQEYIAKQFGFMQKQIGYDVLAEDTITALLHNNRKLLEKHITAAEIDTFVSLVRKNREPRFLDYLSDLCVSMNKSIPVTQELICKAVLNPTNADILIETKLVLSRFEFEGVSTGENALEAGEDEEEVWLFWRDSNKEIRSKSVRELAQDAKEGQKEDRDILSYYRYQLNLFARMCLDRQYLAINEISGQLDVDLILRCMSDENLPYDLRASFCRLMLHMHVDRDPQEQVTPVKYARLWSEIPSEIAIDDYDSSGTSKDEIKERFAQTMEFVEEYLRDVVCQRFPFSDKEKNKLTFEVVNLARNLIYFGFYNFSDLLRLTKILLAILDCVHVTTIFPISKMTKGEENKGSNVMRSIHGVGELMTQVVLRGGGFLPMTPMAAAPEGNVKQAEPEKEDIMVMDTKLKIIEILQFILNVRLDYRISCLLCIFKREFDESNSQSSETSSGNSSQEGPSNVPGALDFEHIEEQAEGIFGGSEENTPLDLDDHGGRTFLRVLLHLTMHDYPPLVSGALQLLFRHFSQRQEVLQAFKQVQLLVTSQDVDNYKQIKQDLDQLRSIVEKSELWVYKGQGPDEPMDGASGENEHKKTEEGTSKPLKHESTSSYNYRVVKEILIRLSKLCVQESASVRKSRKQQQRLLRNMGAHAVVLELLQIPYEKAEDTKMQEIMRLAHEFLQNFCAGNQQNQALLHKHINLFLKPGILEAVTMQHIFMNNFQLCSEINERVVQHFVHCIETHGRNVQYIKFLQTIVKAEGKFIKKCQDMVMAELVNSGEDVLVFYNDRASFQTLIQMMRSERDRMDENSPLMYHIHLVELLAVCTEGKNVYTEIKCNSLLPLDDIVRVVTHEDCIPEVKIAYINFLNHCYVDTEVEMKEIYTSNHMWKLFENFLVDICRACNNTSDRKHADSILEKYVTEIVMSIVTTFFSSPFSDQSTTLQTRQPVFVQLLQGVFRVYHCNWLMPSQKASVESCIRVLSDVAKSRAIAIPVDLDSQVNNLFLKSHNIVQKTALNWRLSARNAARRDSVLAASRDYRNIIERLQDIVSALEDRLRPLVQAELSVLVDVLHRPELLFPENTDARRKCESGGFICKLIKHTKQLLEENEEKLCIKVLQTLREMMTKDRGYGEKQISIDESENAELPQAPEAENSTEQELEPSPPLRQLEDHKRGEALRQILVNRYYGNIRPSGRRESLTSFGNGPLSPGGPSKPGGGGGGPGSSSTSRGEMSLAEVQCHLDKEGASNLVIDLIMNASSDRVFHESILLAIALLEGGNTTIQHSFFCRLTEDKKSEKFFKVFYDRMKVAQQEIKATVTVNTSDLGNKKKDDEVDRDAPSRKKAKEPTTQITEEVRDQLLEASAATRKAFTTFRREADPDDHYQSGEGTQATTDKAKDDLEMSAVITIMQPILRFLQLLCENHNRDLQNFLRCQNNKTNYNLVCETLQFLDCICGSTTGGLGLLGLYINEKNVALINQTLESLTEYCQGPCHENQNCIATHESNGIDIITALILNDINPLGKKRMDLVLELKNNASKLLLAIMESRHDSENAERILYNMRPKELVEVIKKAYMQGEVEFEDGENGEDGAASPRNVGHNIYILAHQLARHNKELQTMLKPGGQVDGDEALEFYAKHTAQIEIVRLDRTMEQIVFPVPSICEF

[4] = target: T2, GST-IV-Va (GST fusion of amino acids 1593-2217 of mouse IP3R1) (mouse, UniProt P11881 1593-2217); assay: GST pulldown from the high salt extract, Western blot with anti-IRBIT antibody
T2 construct: Expressed in Escherichia coli; not shown: glutathione S-transferase (GST) tag of vector pGEX-4T-1
T2 sequence (P11881 1593-2217): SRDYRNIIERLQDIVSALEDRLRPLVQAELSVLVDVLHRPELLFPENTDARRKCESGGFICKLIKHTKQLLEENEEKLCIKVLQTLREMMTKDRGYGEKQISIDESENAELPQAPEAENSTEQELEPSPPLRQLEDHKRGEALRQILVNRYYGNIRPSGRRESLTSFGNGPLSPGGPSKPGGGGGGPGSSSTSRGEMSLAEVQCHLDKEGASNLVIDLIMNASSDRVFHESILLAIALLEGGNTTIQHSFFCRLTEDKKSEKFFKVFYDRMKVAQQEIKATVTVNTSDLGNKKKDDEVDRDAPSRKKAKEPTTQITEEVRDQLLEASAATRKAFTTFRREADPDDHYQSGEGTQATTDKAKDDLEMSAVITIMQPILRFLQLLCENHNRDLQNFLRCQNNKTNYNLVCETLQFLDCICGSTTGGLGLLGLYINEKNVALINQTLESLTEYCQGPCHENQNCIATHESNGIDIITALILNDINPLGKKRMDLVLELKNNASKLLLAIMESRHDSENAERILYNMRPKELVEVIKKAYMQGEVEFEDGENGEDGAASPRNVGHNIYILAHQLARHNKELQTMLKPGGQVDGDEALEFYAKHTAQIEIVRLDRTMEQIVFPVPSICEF
Source text: as §1, §2

[5] = target: T3, GST-IIIab (GST fusion of amino acids 916-1581 of mouse IP3R1) (mouse, UniProt P11881 916-1581); assay: as above
T3 construct: Expressed in Escherichia coli; not shown: glutathione S-transferase (GST) tag of vector pGEX-KG
T3 sequence (P11881 916-1581 N1264K): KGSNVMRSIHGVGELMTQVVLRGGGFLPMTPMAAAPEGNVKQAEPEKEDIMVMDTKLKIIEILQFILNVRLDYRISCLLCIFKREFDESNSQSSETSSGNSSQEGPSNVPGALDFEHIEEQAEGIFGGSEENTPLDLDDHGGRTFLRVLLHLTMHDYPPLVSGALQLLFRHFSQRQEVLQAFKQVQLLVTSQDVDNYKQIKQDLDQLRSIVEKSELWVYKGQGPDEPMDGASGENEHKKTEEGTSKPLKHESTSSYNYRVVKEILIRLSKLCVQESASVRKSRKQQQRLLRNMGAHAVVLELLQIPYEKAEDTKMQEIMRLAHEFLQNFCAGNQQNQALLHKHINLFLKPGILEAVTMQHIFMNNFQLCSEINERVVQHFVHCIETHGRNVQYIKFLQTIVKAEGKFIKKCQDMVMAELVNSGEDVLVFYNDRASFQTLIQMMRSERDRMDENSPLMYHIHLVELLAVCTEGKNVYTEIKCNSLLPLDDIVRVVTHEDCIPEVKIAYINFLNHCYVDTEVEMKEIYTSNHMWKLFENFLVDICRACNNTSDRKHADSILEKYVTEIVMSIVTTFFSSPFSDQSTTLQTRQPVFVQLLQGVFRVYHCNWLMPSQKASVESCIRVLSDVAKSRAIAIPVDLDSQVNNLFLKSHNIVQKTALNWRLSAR
Source text: as §1, §2

[6] = target: T4, GST-IIbIIIa (GST fusion of amino acids 600-1248 of mouse IP3R1) (mouse, UniProt P11881 600-1248); assay: as above
T4 construct: Expressed in Escherichia coli; not shown: glutathione S-transferase (GST) tag of vector pGEX-KG
Source text: as §1, §2

[7] = target: B2; assay: as above
Source text: as §1, §2

Binder: B1
binding result [1]: no binding (tested: 100 pmol of GST fusion protein)

Binder: B2
binding result [2]: no binding (tested: 100 pmol of GST fusion protein)
EC50 (IP3 concentration required for half (50%)-maximal dissociation of IRBIT from GST-EL) [3]: ~0.5 µM
binding result [4]: no binding (tested: 100 pmol GST fusion protein)
binding result [5]: no binding (tested: 100 pmol GST fusion protein)
binding result [6]: no binding (tested: 100 pmol GST fusion protein)

Binder: B3
binding result [1]: no binding (tested: 100 pmol of GST fusion protein)

Binder: B4
binding result [7]: no binding (tested: 100 pmol GST fusion protein)

Binder: B5
binding result [7]: no binding (tested: 100 pmol GST fusion protein)
